In the supplement of paper PMC11246515:
± gives the standard deviation of the averaged measurements.

Assay: total protein half-life in vivo (active degradation + dilution); higher = more stable protein
[1] = E. coli NCM3722 delta-clpP delta-lon delta-hslV, growth: N-lim chemostat, doubling time 6 h
[2] = E. coli NCM3722 delta-clpP, growth: N-lim chemostat, doubling time 6 h
[3] = E. coli NCM3722 delta-hslV, growth: N-lim chemostat, doubling time 6 h
[4] = E. coli NCM3722 delta-smpB, growth: N-lim chemostat, doubling time 6 h
[5] = wild type E. coli NCM3722, growth: C-lim chemostat, doubling time 3 h
[6] = wild type E. coli NCM3722, growth: C-lim chemostat, doubling time 12 h
[7] = wild type E. coli NCM3722, growth: N-lim chemostat, doubling time 6 h
[8] = wild type E. coli NCM3722, growth: N-lim chemostat, doubling time 12 h
[9] = wild type E. coli NCM3722, growth: P-lim chemostat, doubling time 6 h
[10] = wild type E. coli NCM3722, growth: P-lim chemostat, doubling time 12 h
[11] = wild type E. coli NCM3722, growth: C-lim chemostat, doubling time 6 h
[12] = E. coli NCM3722 delta-lon, growth: N-lim chemostat, doubling time 6 h

Sequence | total protein half-life in vivo [1] | total protein half-life in vivo [2] | total protein half-life in vivo [3] | total protein half-life in vivo [4] | total protein half-life in vivo [5] | total protein half-life in vivo [6] | total protein half-life in vivo [7] | total protein half-life in vivo [8] | total protein half-life in vivo [9] | total protein half-life in vivo [10] | total protein half-life in vivo [11] | total protein half-life in vivo [12]
MDTPRPQLLDFQFHQNNDSFTLHFQQRLILTHSKDNPCLWIGSGIADIDMFRGNFSIKDKLQEKIALTDAIVSQSPDGWLIHFSRGSDISATLNISADDQGRLLLELQNDNLNHNRIWLRLAAQPEDHIYGCGEQFSYFDLRGKPFPLWTSEQGVGRNKQTYVTWQADCKENAGGDYYWTFFPQPTFVSTQKYYCHVDNSCYMNFDFSAPEYHELALWEDKATLRFECADTYISLLEKLTALLGRQPELPDWIYDGVTLGIQGGTEVCQKKLDTMRNAGVKVNGIWAQDWSGIRMTSFGKRVMWNWKWNSENYPQLDSRIKQWNQEGVQFLAYINPYVASDKDLCEEAAQHGYLAKDASGGDYLVEFGEFYGGVVDLTNPEAYAWFKEVIKKNMIELGCGGWMADFGEYLPTDTYLHNGVSAEIMHNAWPALWAKCNYEALEETGKLGEILFFMRAGSTGSQKYSTMMWAGDQNVDWSLDDGLASVVPAALSLAMTGHGLHHSDIGGYTTLFEMKRSKELLLRWCDFSAFTPMMRTHEGNRPGDNWQFDGDAETIAHFARMTTVFTTLKPYLKEAVALNAKSGLPVMRPLFLHYEDDAHTYTLKYQYLLGRDILVAPVHEEGRSDWTLYLPEDNWVHAWTGEAFRGGEVTVNAPIGKPPVFYRADSEWAALFASLKSI | 5.5 h | 4.66 ± 0.079 h | 4.79 ± 0.52 h | 4.78 ± 0.19 h | 3.06 ± 0.37 h | 12.6 ± 3.2 h | 4.02 h | 7.22 h | 5.4 ± 0.092 h | 10.4 ± 0.25 h | – | –
MDVQQFFVVAVFFLIPIFCFREAWKGWRAGAIDKRVKNAPEPVYVWRAKNPGLFFAYMVAYIGFGILSIGMIVYLIFYR | 2.64 h | – | 3.67 h | 4.42 h | – | – | – | – | 4.74 h | 8.43 h | 1.84 h | –
MDWLAKYWWILVIVFLVGVLLNVIKDLKRVDHKKFLANKPELPPHRDFNDKWDDDDDWPKKDQPKK [Q2EET2] | 4.44 ± 0.075 h | 4.57 ± 1.7 h | – | 4.97 ± 0.94 h | 3.28 ± 0.98 h | 6.37 h | 5.06 h | 9.68 ± 5.2 h | 3.81 h | 7.42 ± 0.16 h | 5.63 ± 0.88 h | 5.94 ± 1.8 h
MDYEFLRDITGVVKVRMSMGHEVVGHWFNEEVKENLALLDEVEQAAHALKGSERSWQRAGHEYTLWMDGEEVMVRANQLEFAGDEMEEGMNYYDEESLSLCGVEDFLQVVAAYRNFVQQK [P0A8E5] | 4.89 ± 0.087 h | – | 1.63 ± 0.034 h | 1.97 ± 0.039 h | 2.18 ± 0.056 h | 6.328 ± 0.025 h | 1.78 h | 2.8 h | 2.44 ± 0.26 h | 4.45 ± 0.61 h | 3.78 ± 0.4 h | 2 ± 0.21 h
MDYFTLFGLPARYQLDTQALSLRFQDLQRQYHPDKFASGSQAEQLAAVQQSATINQAWQTLRHPLMRAEYLLSLHGFDLASEQHTVRDTAFLMEQLELREELDEIEQAKDEARLESFIKRVKKMFDTRHQLMVEQLDNETWDAAADTVRKLRFLDKLRSSAEQLEEKLLDF [P0A6L9] | 4.89 ± 0.7 h | 3.99 ± 0.75 h | 3.26 ± 0.27 h | 3.04 ± 0.18 h | 2.9 ± 0.23 h | 9.84 ± 1 h | 3.07 ± 0.24 h | 4.57 ± 0.19 h | 5.45 ± 0.78 h | 9.39 ± 0.82 h | 4.74 ± 0.099 h | 4.06 ± 0.18 h
MDYRKIIKEIGRGKNHARDLDRDTARGLYAHMLNGEVPDLELGGVLIALRIKGEGEAEMLGFYEAMQNHTIKLTPPAGKPMPIVIPSYNGARKQANLTPLLAILLHKLGFPVVVHGVSEDPTRVLTETIFELMGITPTLHGGQAQAKLDEHQPVFMPVGAFCPPLEKQLAMRWRMGVRNSAHTLAKLATPFAEGEALRLSSVSHPEYIGRVAKFFSDIGGRALLMHGTEGEVYANPQRCPQINLIDREGMRVLYEKQDTAGSELLPQAKDPETTAQWIERCLAGSEPIPESLKIQMACCLVATGEAATISDGLARVNQAF | 4.81 ± 0.7 h | 4.14 ± 0.24 h | 4.41 ± 0.12 h | 4.44 ± 0.42 h | 3.09 ± 0.67 h | 9.72 ± 1.2 h | 4.54 ± 0.17 h | 7.03 ± 0.37 h | 5.83 ± 0.098 h | 11.7 ± 0.24 h | 5.84 ± 0.53 h | 5.22 ± 0.37 h
